Assay results as given in publication PMC6895269.
Each block holds one substance with its values, some of them ahead of it.

Key:
[1] = system: Rtf1 HMD74-184 (histone modification domain) (Saccharomyces cerevisiae); assay: EMSA; details: 50 mM Tris-HCl pH 7.5, 150 mM NaCl, 2 mM arginine, 0.01% CHAPS, 0.01% NP-40, 1 uM BSA, 3 nM nucleosome, 30 min on ice, 4-12% Tris-glycine native PAGE
[2] = target: wild-type X. laevis nucleosome (X. laevis); assay: native gel or EMSA; 3 nM nucleosomes with increasing recombinant HMD, 30 min on ice, 50 mM Tris-HCl pH 7.5, 150 mM NaCl, 2 mM arginine, 0.01% CHAPS, 0.01% NP-40, 1 μM BSA; 4-12% native PAGE, SYBR Green; Kd by non-linear least squares regression
[3] = target: acidic patch mutant X. laevis nucleosome (H2A E61A, E64A, D90A, E92A) (X. laevis); assay: as above

Substance: acidic patch mutant X. laevis nucleosome (H2A E61A, E64A, D90A, E92A)
- Kd ([1]; histone H2A E61A;E64A;D90A;E92A): 250 nM

- Kd [2]: 100 nM
- Kd [3]: 250 nM
Substance: recombinant HMD_(74-184) (Rtf1 histone modification domain) (from UniProt P53064 74-184) (domain or fragment)

Substance: wild-type X. laevis nucleosome
- Kd ([1]; wild-type histone octamer): 100 nM
